Measured values as given in paper PMC10311354, “RNA-binding is an ancient trait of the Annexin family” (Frontiers in Cell and Developmental Biology, 2023).

B1: rat Annexin A8 (natural protein, UniProt Q4FZU6 1-327, looked up)
chain: MAWWKAWVEQEGVSVKGSSHFNPDPDAETLYKAMKGIGTNEQAIIDVLTKRSNVQRQQIAKSFKAQFGKDLTETLKSELSGKFERLIVALMYPPYRYEAKELHDAMKGLGTKEGVIIEILASRTKNQLREIMKAYEEDYGSTLEEDIQGDTSGYLERILVCLLQGCRDDVSGFVDPGLALQDAQDLHAAGEKILGTDEMKFITILCTRSATHLMRVFEEYEKIANKSIEDSIKSETHGSLEEAMLTVVKCTRNVHSYFAERLYYAMKGAGTLDGTLIRNIVSRSEIDLNLIKSQFQKMYGKTLSSMIMGDTSGYYKTALLNLVGTDL
notes: Annexin A8, rat, 327 aa, cDNA from total RNA of rat lung; The forward primer puts ATGGGT before the natural start codon, so Met-Gly may precede the natural Met; also called AnxA8; source: E. coli BL21 (DE3), purified (Ni2+-NTA, size exclusion chromatography)
B2: rat Annexin A3 (natural protein, UniProt P14669 1-324, looked up)
chain: MAASLWVGPRGTINNYPGFNPSVDAEAIRKAIKGIGTDEKTLINILTERSNAQRQLIVKQYQEAYEQALKADLKGDLSGHFEHVMVALITAPAVFDAKQLKKSMRGMGTDEDTLIEILTTRTSRQMKEISQAYYTAYKKNLRDDISSETSGDFRKALLTLADGGRDESLKVDEHLAKKDAQTLYDAGEKKWGTDEDKFTEILCLRSFPQLKLTFDEYRNISQKDIEDSIKGELSGHFEDLLLAVVRCTRNTPAFLAGRLHQALKGAGTDEFTLNRIMVSRSEIDLLDIRREFKKHYGCSLYSAIQSDTSGDYRTVLLKICGGDD
notes: The forward primer puts ATGGGT before the natural start codon, so Met-Gly may precede the natural Met; also called AnxA3; source: E. coli BL21 (DE3), purified (Ni2+-NTA, size exclusion chromatography)
B3: rat Annexin A2 (natural protein, UniProt Q07936 1-339, looked up)
chain: MSTVHEILCKLSLEGDHSTPPSAYGSVKPYTNFDAERDALNIETAIKTKGVDEVTIVNILTNRSNAQRQDIAFAYQRRTKKELPSAMKSALSGHLETVMLGLLKTPAQYDASELKASMKGLGTDEDSLIEIICSRTNQELQEINRVYKEMYKTDLEKDIISDTSGEFRKLLVALAKGKRAEDGSVIDYELIDQDARELYDAGVKRKGTDVPKWISIMTERSVCHLQKVFERYKSYSPYDMLESIRKEVKGDLENAFLNLVQCIQNKPLYFADRLYDSMKGKGTRDKVLIRIMVSRSEVDMLKIRSEFKRKYGKSLYYFIQQDTKGDYQKALLYLCGGDD
notes: The forward primer puts ATGGGT before the natural start codon, so Met-Gly may precede the natural Met; also called AnxA2; source: E. coli BL21 (DE3), purified (Ni2+-NTA, size exclusion chromatography)
B4: rat Annexin A1 (natural protein, UniProt P07150 1-346, looked up)
chain: MAMVSEFLKQACYIEKQEQEYVQAVKSYKGGPGSAVSPYPSFNPSSDVAALHKAIMVKGVDEATIIDILTKRTNAQRQQIKAAYLQETGKPLDETLKKALTGHLEEVVLAMLKTPAQFDADELRAAMKGLGTDEDTLIEILTTRSNQQIREITRVYREELKRDLAKDITSDTSGDFRNALLALAKGDRCEDMSVNQDLADTDARALYEAGERRKGTDVNVFNTILTTRSYPHLRKVFQNYRKYSQHDMNKALDLELKGDIEKCLTTIVKCATSTPAFFAEKLYEAMKGAGTRHKTLIRIMVSRSEIDMNEIKVFYQKKYGIPLCQAILDETKGDYEKILVALCGGN
notes: Annexin A1, rat, isoform X1, 346 aa, cDNA by RT-PCR from PC12 cells; The forward primer puts ATGGGT before the natural start codon, so Met-Gly may precede the natural Met; also called AnxA1; source: E. coli BL21 (DE3), purified (Ni2+-NTA, size exclusion chromatography)

Legend:
[1] = system: Δ142AnxA7 (Rattus norvegicus); assay: BLI; conditions: RNA-binding buffer: 10 mM triethanolamine pH 7.4, 50 mM KCl, 1 mM DTT, 2 mM MgSO4, 100 uM CaCl2; spot blot at RT, blocked with 1 mg/mL tRNA; BLI temperature …
[2] = system: AnxA13 (Rattus norvegicus); assay: BLI; conditions: RNA-binding buffer: 10 mM triethanolamine pH 7.4, 50 mM KCl, 1 mM DTT, 2 mM MgSO4, 100 uM CaCl2; spot blot at RT, blocked with 1 mg/mL tRNA; BLI temperature …
[3] = system: AnxA2 (Rattus norvegicus); assay: BLI; conditions: RNA-binding buffer: 10 mM triethanolamine pH 7.4, 50 mM KCl, 1 mM DTT, 2 mM MgSO4, 100 uM CaCl2; spot blot at RT, blocked with 1 mg/mL tRNA; BLI temperature …
[4] = system: Δ188AnxA11 (Rattus norvegicus); assay: BLI; conditions: RNA-binding buffer: 10 mM triethanolamine pH 7.4, 50 mM KCl, 1 mM DTT, 2 mM MgSO4, 100 uM CaCl2; spot blot at RT, blocked with 1 mg/mL tRNA; BLI temperature …
[5] = target: the molecule itself; assay: SDS-PAGE (Coomassie Brilliant Blue staining); purified recombinant rat Anxs on 4%-15% SDS-PAGE, denaturation buffer with beta-mercaptoethanol; dimeric forms seen as faint bands beside the monomer; nature of the dimers not known (disulfide or tight noncovalent)

| Molecule | Kd [1] | Kd [2] | Kd [3] | Kd [4] | binding result [5] |
| --- | --- | --- | --- | --- | --- |
| anxA2 3'UTR | 174 nM | 246 nM | 192 nM | > 500 nM |  |
| c-myc 3'UTR | 126 nM | 130 nM | 73.9 nM | 124 nM |  |
| c-myc 5'UTR |  |  | 37.2 nM |  |  |
| B1 |  |  |  |  | binds |
| B2 |  |  |  |  | binds |
| B3 |  |  |  |  | binds |
| B4 |  |  |  |  | binds |
